From PMC8038991 (2021)
Ends that are not written are not given here.

Columns and labels:
[1] = biological target: purified wild type ZZ fragment p62 (122-175) of the ITC table (Fig. 3b) (human, UniProt Q13501 122-175); assay: ITC
[2] = biological target: N132Q ZZ fragment p62 (122-175) (Homo sapiens); assay: ITC
N132Q ZZ fragment p62 (122-175) (Homo sapiens), sequence (chain, as listed by the source N132Q): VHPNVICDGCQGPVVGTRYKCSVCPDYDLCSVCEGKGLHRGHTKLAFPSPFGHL

Work on HIFS yielded a Kd [1] of 300 µM.

For RIFS (also: two Zn2+ ions bound) [RIFS tetrapeptide (Nt-Arg)], the Kd [2] was 21.4 µM.

Work on KIFS yielded a Kd [1] of 51.8 µM.

In the case of YIFS (also: two Zn2+ ions bound) [YIFS tetrapeptide (Nt-Tyr)], the Kd [2] is reported as 143 µM.

WIFS was tested, and the Kd [1] was 374 µM.
